The results in this text go back to patent US20180127503A1 (EUREKA THERAPEUTICS, published 2018).

No end group written: not given here. *: point of attachment. Biotin = O=C1N[C@H]2[C@H](CS[C@H]2CCCCC(=O)*)N1

For assay [1], the target named is T1, human ROR2 expressed on the cell surface (human, UniProt Q01974 34-943).
T1 construct: Endogenous ROR2 of human tumour cell lines; also called cell surface ROR2; ROR2 on tumour cell lines
Kind of assay: flow cytometry, SKOV3 cells (ovarian CA). Also on record: unit not given here. The method, then: (§1) Human tumour cell lines were authenticated using short tandem repeat (STR) analysis. They were cultured in RPMI1640 (Cellgro) supplemented with 10% fetal bovine serum (FBS, Life Technologies) at 37° C. in a 5% CO₂ humidified incubator. They were harvested, washed in PBS and reacted with ROR2-IgG at 1 ug/10⁶ tumour cells on ice for an hour. #901-IgG was used as a negative control at the same dose. After washing, a secondary PE-conjugated goat anti-human IgG, Fcγ fragment specific (1:100, Jackson ImmunoResearch) was added for another 30 min incubation. Staining was analyzed on a FACSCalibur (BD Biosciences). ROR2 (full length) antibody binding towards multiple cancer cell lines were compared with Rituxan and Herceptin antibodies. The cancer cell lines were derived from breast cancer, colorectal cancer, mesothelioma, hepatocellular carcinoma, ovarian cancer, osteosarcoma, neuroblastoma, etc. ROR2 #90 antibody could recognize most of the tumour cells tested, and in some cases, the binding intensity was higher than Herceptin (see Tables 8 to 10).
Background: A flow cytometer gives signals particle by particle.

Assay [2] deals with T1, human ROR2 expressed on the cell surface. Kind of assay: flow cytometry, SKNMM cells (neuroblastoma). Further details: unit not given here. As to the method: as §1
For assay [3] the target is unchanged. Kind of assay: flow cytometry, SKHEP-1 cells (HCC). Further details: unit not given here. The method, then:
as §1

Assay [4] shares this target. Kind of assay: flow cytometry, BE(2)S cells (neuroblastoma). Also on record: unit not given here. As to the method: as §1
The target is the same in assay [5]. Kind of assay: flow cytometry, SKNSH cells (neuroblastoma). Also on record: unit not given here. As to the method: as §1
Assay [6] has the same target. In words: flow cytometry, OCM1 cells (melanoma). Also on record: unit not given here. As to the method:
as §1

The target is the same in assay [7]. Kind of assay: flow cytometry, IMR32 cells (neuroblastoma). Further details: unit not given here. As to the method:
as §1

Assay [8] has the same target. In words: flow cytometry, U2OS cells (osteosarcoma). Also on record: unit not given here. The method, then: as §1
The target is the same in assay [9]. In words: flow cytometry, U251 LUC cells (glioma). Also on record: unit not given here. The method, then: as §1
The target is the same in assay [10]. Kind of assay: flow cytometry, HTB37-Caco2 cells (CRC). Also on record: unit not given here. The method, then:
as §1

For assay [11] the target is unchanged. In words: flow cytometry, NMB7 cells (neuroblastoma). Also on record: unit not given here. As to the method:
as §1

For assay [12] the target is unchanged. In words: flow cytometry, NCI-H2052 cells (mesothelioma). Further details: reference not given here. The method, then:
as §1

For assay [13] the target is unchanged. Kind of assay: flow cytometry, JN DSRCT cells (DSRCT). Also on record: unit not given here. The method, then: as §1
Assay [14] has the same target. Kind of assay: flow cytometry, NB5 cells (neuroblastoma). Also on record: unit not given here. The method, then:
as §1

For assay [15] the target is unchanged. Kind of assay: flow cytometry, HEP G2 cells (HCC). Further details: unit not given here. The method, then: as §1
The target in assay [16] is T2, biotin-SGSG-KTITATGVLFVRLGP ROR2 array peptide (human).
T2 construct: Peptide of the overlapping ROR2 peptide array, immobilised on streptavidin plates
T2 peptide: Biotin-SGSGKTITATGVLFVRLGP
Kind of assay: ELISA on biotinylated ROR2 peptide array. As to the method: To better understand the structural basis of the ROR2-specific antibody as a drug candidate, a standard epitope mapping was performed by ELISA against a ROR2 peptide array. The peptide array covers the whole length of the ROR2 protein through 96 overlapping peptides ([…] each with 4 amino acids worth of space between them). The peptides were biotinlyated at the N-terminal to immobilize them onto streptavidin ELISA plates. A spacer (SGSG) was used to provide flexibility. The space was inserted at the N-terminal biotin-SGSG-15 amino acids. ELISA assays were performed with the full length ROR2 antibodies as the primary antibody and an anti-human Fc AP-conjugated antibody was used for detection. […] FIG. 12 indicates the epitope position in ROR2 primary structure. This sequence is not shared by ROR1 and not found in human proteins by PBLAST.
(In general: An ELISA detects its analyte on a solid surface through an enzyme-linked reagent.)

T1 sequence (Q01974 34-943 limits assumed): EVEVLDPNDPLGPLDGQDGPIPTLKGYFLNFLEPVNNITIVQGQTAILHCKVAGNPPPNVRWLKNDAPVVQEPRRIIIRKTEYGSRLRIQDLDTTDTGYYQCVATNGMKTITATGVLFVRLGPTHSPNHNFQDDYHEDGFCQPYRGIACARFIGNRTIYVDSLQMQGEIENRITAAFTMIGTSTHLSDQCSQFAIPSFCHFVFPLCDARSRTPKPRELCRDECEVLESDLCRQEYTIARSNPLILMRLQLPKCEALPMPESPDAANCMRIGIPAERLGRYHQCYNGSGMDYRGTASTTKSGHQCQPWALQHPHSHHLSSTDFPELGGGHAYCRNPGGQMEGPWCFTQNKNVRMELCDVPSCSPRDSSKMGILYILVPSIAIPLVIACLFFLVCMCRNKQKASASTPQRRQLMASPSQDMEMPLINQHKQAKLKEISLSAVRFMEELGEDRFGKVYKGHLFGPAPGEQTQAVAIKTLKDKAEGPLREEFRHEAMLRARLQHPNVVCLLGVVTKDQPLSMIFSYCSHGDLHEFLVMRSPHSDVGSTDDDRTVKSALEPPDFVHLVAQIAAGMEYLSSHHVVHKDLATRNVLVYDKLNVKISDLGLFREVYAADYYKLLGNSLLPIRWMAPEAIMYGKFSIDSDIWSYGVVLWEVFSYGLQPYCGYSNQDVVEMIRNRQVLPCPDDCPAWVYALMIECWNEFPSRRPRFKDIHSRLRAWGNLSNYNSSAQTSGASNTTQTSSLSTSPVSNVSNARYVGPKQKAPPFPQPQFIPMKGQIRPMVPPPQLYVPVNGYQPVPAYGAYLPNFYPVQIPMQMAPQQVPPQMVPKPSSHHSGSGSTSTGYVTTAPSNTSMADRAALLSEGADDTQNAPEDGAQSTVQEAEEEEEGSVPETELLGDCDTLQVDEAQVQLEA

B1: ROR2-23 full length human IgG1 antibody (antibody, V domains shown)
VH: EVQLVQSGAEVKKPGESLKISCQGSGYRFSKYWIGWVRQMPGKGLEWMGIIYPGDSDTRYSPSFQGQVTISADKSISTAYLQWSSLKASDTAMYYCARSFSSFIYDYWGQGTLVTVSS
VL: ETTLTQSPGTLSVSPGERATLSCRASQSVSSNLAWYQQKRGQAPRLLIYGASTRATGIPVRFSGSGSGTEFTLTISRLEPEDFAVYYCQQYGRSPLTFGGGTKVDIKR
notes: The light chain of clone 023 is labelled kappa; also called clone #23; clone #023 IgG1
In the case of B1, the binding intensity in assay [1] is 116; in [2] it was 77; in assay [3], 42; in assay [4], 26; in assay [5] it was 170; in assay [6] it was 10. Moreover, the binding intensity in assay [7] stood at 24; in assay [8], 52; in assay [9] it was 14; in assay [10], 37; in assay [11] it was 35; in [12], 65. In addition, the binding intensity turned out to be 50 in assay [13], 32 in assay [14] and 30 in [15].

B2: ROR2-27 full length human IgG1 antibody (antibody, V domains shown)
VH: QVQLVESGAEVKKPGESLKISCKASGYSFSNYWIGWVRQMPGKGLEWMGIIYPDDSDTRYSPSFQGQVTISADKSISTAYLQWYSLKVADTAKYYCVRPRGAFDIWGQGTTVTVSS
VL: QSVLTQPPSVSGAPGQRVTISCTGSSSNIGAGHAVHWYQQLPGTAPKLLIYDNANRPSGVPDRFSGSQSGTSASLAITGLQTGDEADYYCGTWDDSPSAYVFGTGTKVTVLG
notes: also called clone #27; clone #027 IgG1
Regarding B2, the binding intensity in [1] came out at 36; in assay [2], 69; in [3], 23; in [4], 21; in assay [5], 8; in [6], 6. Moreover, the binding intensity in [7] stood at 16; in assay [8], 29; in assay [9], 9; in assay [10], 13; in assay [11], 23; in assay [12], 46. In addition, the binding intensity turned out to be 5 in assay [13], 20 in [14] and 11 in assay [15].

B3: ROR2-241 full length human IgG1 antibody (antibody, V domains shown)
VH: EVQLVQSGAEVKKPGASVKVSCKASGYTFTNYYIHWVRQAPGQGLEWMGIINPTSGRTRYAQRFQGRVTMTRDTSTNTVYMDLSSLRSEDTAMYYCARSGYYWGVNGDQWGQGTLVTVSS
VL: SYELTQPLSVSVALGQTARITCGGNNIGSKNVHWYQQKPGQAPVLVIYRDSNRPSGIPERFSGSNSGNTATLTISRAQAGDEADYYCQVWDSSIVVFGGGTKLTVLG
For the molecule B3, the binding intensity in [1] came to 42; in assay [2], 126; in assay [3], 53; in assay [4], 58; in assay [5], 141; in assay [6], 19. Moreover, the binding intensity in [7] amounted to 50; in [8] it was 60; in [9], 120; in [10] it was 24; in [11], 58; in [12], 43. Moreover, the binding intensity in assay [13] worked out at 27; in [14] it was 56; in [15], 36.

B4: ROR2-90 full length human IgG1 antibody (antibody, V domains shown)
VH: EVQLVESGPGLVKPSQTLSLTCTVSGGSISSGGYYWSWIRQHPGKGLEWIGYIYYSGSTYYNPSLKSRVTISVDTSKNQFSLKLSSVTAADTAMYYCARGGLYWTYSQDVWGQGTLVTVSS
VL: QPVLTQPPSASGTPGQRVTISCSGSSSNIGSDYVSWYQQLPGTAPKLLIYRNDQRPSGVPDRFSGSKSGTSASLAISGLRSEDEADYYCVAWDDSLSGYVFGSGTKVTVLG
notes: also called clone #90; antibody #90
On to B4, for which the binding intensity in assay [1] is 246; in assay [2] it was 117; in assay [3] it was 74; in assay [4], 40; in assay [5], 105; in assay [6], 18. The binding intensity came out at 51 in assay [7]; 94 in assay [8]; 27 in [9]; 91 in assay [10]; 47 in assay [11]; 101 in assay [12]. Moreover, the binding intensity in [13] was found to be 84; in assay [14], 47; in assay [15] it was 49. The binding result in [16] was “binds”.

B5: ROR2-240 full length human IgG1 antibody (antibody, V domains shown)
VH: QITLKESGPELVKPTQTLTLTCTFSGFSLSTSGMSVSWIRQPPGKALEWLARIDWDDDKYYSTSLKTRLTISKDTSKNQVVLTMTNTDPVDTATYYCARGFYLAYGSYDSWGQGTLVTVSS
VL: QSALTQPASVSGSPGQSITISCTGTSGDVGGYNYVSWYQHHPGKAPKLIIYDVNKRPSGFSDRFSGSKSGNTASLTISGLQAEDEADYYCSSYTSTSTVFGGGTKLTVLG
notes: also called clone #240 IgG1
As for B5, the binding intensity came to 5 in [1]; 84 in assay [2]; 21 in assay [3]; 26 in assay [4]; 113 in assay [5]; 3 in assay [6]. Besides, the binding intensity was 29 in assay [7]; 39 in assay [8]; 5 in [9]; 6 in [10]; 33 in [11]; 8 in assay [12]. Moreover, the binding intensity in assay [13] is 3; in assay [14], 17; in assay [15], 4.
